Measured values published in US20190002511A1.

Tests used:
[1] = target: human α-thrombin (recombinant) (human) (UniProt P00734); assay: cell-based or functional assay
[2] = target: human α-thrombin (recombinant) (human) (UniProt P00734); assay: assay not named

time to observe clot formation in blood tubes, 300 µM peptide [1]: 4 h | Ki [2]: > 30 nM
Substance: β-variegin (peptide)
